In patent US20100184047A1, “SCREENING AND THERAPEUTIC METHOD FOR NSCLC TARGETING THE CDCA8-AURKB COMPLEX” (ONCOTHERAPY SCIENCE, INC., priority 2007, published 2010):
Residues, ends and D or L forms follow the SMILES beside them.

T1: 11R-CDCA8261-280
T1 chain: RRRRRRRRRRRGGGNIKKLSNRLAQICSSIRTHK

T2: CDCA8delta11
T2 chain: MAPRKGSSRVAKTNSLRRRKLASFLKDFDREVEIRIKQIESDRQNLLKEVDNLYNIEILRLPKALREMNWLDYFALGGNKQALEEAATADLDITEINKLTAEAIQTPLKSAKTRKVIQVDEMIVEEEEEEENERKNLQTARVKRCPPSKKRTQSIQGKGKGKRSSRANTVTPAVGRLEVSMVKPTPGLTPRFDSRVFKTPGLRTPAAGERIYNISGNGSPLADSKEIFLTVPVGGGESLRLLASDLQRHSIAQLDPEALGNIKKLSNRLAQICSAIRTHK

T3: CDCA8delta12
T3 chain: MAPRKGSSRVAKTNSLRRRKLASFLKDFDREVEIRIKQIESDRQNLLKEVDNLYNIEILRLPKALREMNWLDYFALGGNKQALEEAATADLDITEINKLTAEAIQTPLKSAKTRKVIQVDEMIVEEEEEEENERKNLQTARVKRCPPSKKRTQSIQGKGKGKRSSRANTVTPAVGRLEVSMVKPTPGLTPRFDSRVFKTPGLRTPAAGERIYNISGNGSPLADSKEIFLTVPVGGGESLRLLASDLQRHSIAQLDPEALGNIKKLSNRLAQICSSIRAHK

T4: CDCA8delta13
T4 chain: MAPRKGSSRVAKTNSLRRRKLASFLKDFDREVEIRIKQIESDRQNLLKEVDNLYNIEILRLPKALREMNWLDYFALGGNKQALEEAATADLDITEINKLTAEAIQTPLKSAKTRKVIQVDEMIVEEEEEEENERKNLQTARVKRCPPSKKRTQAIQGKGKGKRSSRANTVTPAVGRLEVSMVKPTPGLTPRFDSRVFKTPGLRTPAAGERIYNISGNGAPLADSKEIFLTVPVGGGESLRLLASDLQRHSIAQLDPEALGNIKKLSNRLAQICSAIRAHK

T5: CDCA8delta8
T5 chain: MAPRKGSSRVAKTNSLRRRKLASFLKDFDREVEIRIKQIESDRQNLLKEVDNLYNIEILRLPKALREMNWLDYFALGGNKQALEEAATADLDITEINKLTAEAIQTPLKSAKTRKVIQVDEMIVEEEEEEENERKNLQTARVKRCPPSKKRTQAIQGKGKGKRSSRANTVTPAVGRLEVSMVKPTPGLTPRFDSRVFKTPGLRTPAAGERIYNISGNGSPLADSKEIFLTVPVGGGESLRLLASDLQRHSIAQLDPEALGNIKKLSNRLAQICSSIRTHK

T6: CDCA8delta9
T6 chain: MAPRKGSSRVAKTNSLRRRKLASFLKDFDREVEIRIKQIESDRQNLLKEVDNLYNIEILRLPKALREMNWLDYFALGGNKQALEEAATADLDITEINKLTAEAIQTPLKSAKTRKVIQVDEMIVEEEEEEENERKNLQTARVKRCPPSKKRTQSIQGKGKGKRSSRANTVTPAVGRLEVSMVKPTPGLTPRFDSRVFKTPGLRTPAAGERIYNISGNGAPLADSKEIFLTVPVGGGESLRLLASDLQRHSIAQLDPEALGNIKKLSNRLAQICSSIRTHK

T7: full-length recombinant CDCA8 protein (wild-type, N-terminal His tag)
T7 chain: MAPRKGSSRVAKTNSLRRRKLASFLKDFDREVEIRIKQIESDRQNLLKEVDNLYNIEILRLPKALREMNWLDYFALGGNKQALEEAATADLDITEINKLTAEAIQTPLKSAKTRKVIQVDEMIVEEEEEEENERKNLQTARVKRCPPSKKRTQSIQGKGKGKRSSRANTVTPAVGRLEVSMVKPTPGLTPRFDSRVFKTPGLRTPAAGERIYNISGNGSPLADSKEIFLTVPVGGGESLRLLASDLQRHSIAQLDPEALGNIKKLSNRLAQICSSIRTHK


Tests used:
MRC5 cells = test: MTT assay with 11R-peptides on normal lung fibroblasts; type: cell-based; conditions: MRC5, normal human lung fibroblast derived; CDCA8 and AURKB hardly detectable
CCD19-Lu cells = test: Cell viability with 11R-peptides on normal lung fibroblasts; type: cell-based; conditions: normal human lung fibroblast derived, CDCA8 and AURKB hardly detectable
BEAS-2B cells = test: MTT assay with 11R-peptides on bronchial epithelia derived cells; type: cell-based; conditions: human bronchial epithelia derived, CDCA8 and AURKB hardly detectable
Experimental: LC319, SBC-5 cells and BEAS-2B cells were incubated with the 11R-peptides at the concentration of 2.5 micromoles, 5 micromoles, and 7.5 micromoles for seven days. The medium was exchanged at every 48 hours at the appropriate concentrations of each peptide and the viability of cells was evaluated by MTT assay at 7 days after the treatment. To confirm the transduction efficiency of the peptides, the 11R-CDCA8261-280 and its control peptides labeled with fluorescein isothiocyanate (FITC) at N-terminus were synthesized. Transduction of the peptides (2.5-7.5 micromoles) was monitored by fluorescence microscopic observation after a 3-hour incubation of the peptides with the cell lines at 37 degrees C.

11R-CDCA8261-280 = target: T1, 11R-CDCA8261-280
CDCA8delta11 = target: T2, CDCA8delta11
CDCA8delta12 = target: T3, CDCA8delta12
CDCA8delta13 = target: T4, CDCA8delta13
CDCA8delta8 = target: T5, CDCA8delta8
CDCA8delta9 = target: T6, CDCA8delta9
[1] = target: T7, full-length recombinant CDCA8 protein …

| Molecule | cell viability of normal cells (MRC5 cells) | cell viability of normal cells (CCD19-Lu cells) | cell viability of normal cells (BEAS-2B cells) | phosphorylation level of rhCDCA8 by rhAURKB in in vitro kinase assay (11R-CDCA8261-280) | phosphorylation level in in vitro kinase assay (CDCA8delta1) | phosphorylation level in in vitro kinase assay (CDCA8delta10) | phosphorylation level in in vitro kinase assay (CDCA8delta11) | phosphorylation level in in vitro kinase assay (CDCA8delta12) | phosphorylation level in in vitro kinase assay (CDCA8delta13) | phosphorylation level in in vitro kinase assay (CDCA8delta2) | phosphorylation level in in vitro kinase assay (CDCA8delta3) | phosphorylation level in in vitro kinase assay (CDCA8delta4) | phosphorylation level in in vitro kinase assay (CDCA8delta5) | phosphorylation level in in vitro kinase assay (CDCA8delta6) | phosphorylation level in in vitro kinase assay (CDCA8delta7) | phosphorylation level in in vitro kinase assay (CDCA8delta8) | phosphorylation level in in vitro kinase assay (CDCA8delta9) | in vitro phosphorylation ([gamma-32P] ATP kinase assay) [1] |
| --- | --- | --- | --- | --- | --- | --- | --- | --- | --- | --- | --- | --- | --- | --- | --- | --- | --- | --- |
| CC[C@H](C)[C@H](NC(=O)[C@H](CC(N)=O)NC(=O)CNC(=O)CNC(=O)CNC(=O)[C@H](CCCNC(=N)N)NC(=O)[C@H](CCCNC(=N)N)NC(=O)[C@H](CCCNC(=N)N)NC(=O)[C@H](CCCNC(=N)N)NC(=O)[C@H](CCCNC(=N)N)NC(=O)[C@H](CCCNC(=N)N)NC(=O)[C@H](CCCNC(=N)N)NC(=O)[C@H](CCCNC(=N)N)NC(=O)[C@H](CCCNC(=N)N)NC(=O)[C@H](CCCNC(=N)N)NC(=O)[C@@H](N)CCCNC(=N)N)C(=O)N[C@@H](CCCCN)C(=O)N[C@@H](CCCCN)C(=O)N[C@@H](CC(C)C)C(=O)N[C@@H](CO)C(=O)N[C@@H](CC(N)=O)C(=O)N[C@@H](CCCNC(=N)N)C(=O)N[C@@H](CC(C)C)C(=O)N[C@@H](C)C(=O)N[C@@H](CCC(N)=O)C(=O)N[C@H](C(=O)N[C@@H](CS)C(=O)N[C@@H](CO)C(=O)N[C@@H](CO)C(=O)N[C@H](C(=O)N[C@@H](CCCNC(=N)N)C(=O)N[C@H](C(=O)N[C@@H](Cc1c[nH]cn1)C(=O)N[C@@H](CCCCN)C(=O)O)[C@@H](C)O)[C@@H](C)CC)[C@@H](C)CC [11R-CDCA8261-280] (H-RRRRRRRRRRRGGGNIKKLSNRLAQICSSIRTHK-OH) | no off-target effect | no effect | no significant growth suppressive effect | – | – | – | – | – | – | – | – | – | – | – | – | – | – | – |
| recombinant AURKB (Catalog No. 14-489; upstate) (protein) MAQKENSYPWPYGRQTAPSGLSTLPQRVLRKEPVTPSALVLMSRSNVQPTAAPGQKVMENSSGTPDILTRHFTIDDFEIGRPLGKGKFGNVYLAREKKSHFIVALKVLFKSQIEKEGVEHQLRREIEIQAHLHHPNILRLYNYFYDRRRIYLILEYAPRGELYKELQKSCTFDEQRTATIMEELADALMYCHGKKVIHRDIKPENLLLGLKGELKIADFGWSVHAPSLRRKTMCGTLDYLPPEMIEGRMHNEKVDLWCIGVLCYELLVGNPPFESASHNETYRRIVKVDLKFPASVPMGAQDLISKLLRHNPSERLPLAQVSAHPWVRANSRRVLPPSALQSVA | – | – | – | the phosphorylation level of rhCDCA8 was significantly suppressed by the treatment with 11R-CDCA8261-280 peptides ... compared to its scramble peptides | represented the same levels of phosphorylation compared to wild-type CDCA8 | showed the same levels of phosphorylation compared with wild-type | revealed the reduction of phosphorylation levels in four mutated-constructs | revealed the reduction of phosphorylation levels in four mutated-constructs | complete disappearance of CDCA8 phosphorylation by AURKB | a reduction of phosphorylation levels was detected in three mutated constructs (CDCA8delta2, -delta5, and -delta6), as compared to a wild-type | represented the same levels of phosphorylation compared to wild-type CDCA8 | represented the same levels of phosphorylation compared to wild-type CDCA8 | a reduction of phosphorylation levels was detected in three mutated constructs (CDCA8delta2, -delta5, and -delta6), as compared to a wild-type | a reduction of phosphorylation levels was detected in three mutated constructs (CDCA8delta2, -delta5, and -delta6), as compared to a wild-type | showed the same levels of phosphorylation compared with wild-type | revealed the reduction of phosphorylation levels in four mutated-constructs | revealed the reduction of phosphorylation levels in four mutated-constructs | CDCA8 was phosphorylated in an AURKB-dose-dependent manner |
